The text below walks through data of the DeepSol protein solubility set.

This series in a line: soluble on expression in E. coli; label from the status in PepcDB or PDB records.
“MGSNELFTRSVYMQSSVYSNNSKSSTSSSSSNSIPTQSAPAMNAASSPSKEPAKQEKEDDKKEVEEKKEIEKSVEAKVEGKVKAKVESTQNTDNSQELKAPEEKPKKKKKKKSNLIVSASVEKLSIVPEKEDFSILEKKLREFNFYHGFLPREDLHTTLHNPGDFLLRVSEVVEGEHKVNREVILSLIPVSTVSKDEEDRKKVRNVVIKRVTNLFFCEITRTFESISDLVTYYTKNPGGCASGTFQLKHPILQQSWEFMHSDVTVGKVLGEGAFGKVCSGTLKLKDGTNVDVAIKMTKVSAFLSKMKIKEMMNEARFIRNFNHKNVVRLYGVAHHEQPLYILLELVKGGSLQDHMKKEKGAVSIVEKIKFCSGAGRGIEYLHQNNCIHRDIAARNCLLHEKEVKITDFGLSRTGPVYKMKTACKLPVKWLAPETLSTLSFSFATDTYSWGVTCYEVFADGVEPFFGIQNSVVKTDILANKFLQMPPTTPESIKKYMEASIFVEGSRRATMTSAIAEFEKIKSALERPPSDMLSVGAGAKKVMKLLKRNKQEKYSKGD”: the “soluble on expression in E. coli” value is “not soluble”.
Next, “MIGNLKLKRFEEVNLVLSGGAAKGIAHIGVLKALEELGIKVKRLSGVSAGAIVSVFYASGYTPDEMLKLLKEVNWLKLFKFKTPKMGLMGWEKAAEFLEKELGVKRLEDLNIPTYLCSADLYTGKALYFGRGDLIPVLLGSCSIPGIFEPVEYENFLLVDGGIVNNLPVEPLEKFKEPIIGVDVLPITQERKIKNILHILIRSFFLAVRSNSEKRKEFCNVVIEPPLEEFSPLDVNKADEIFLRGYESTLRIMRNFVKHLEHHHHHH”: “not soluble”; “IGKEKAEVELLQVDPELQAEIIATHNIALQAAVQVEEKKAREAATEAVKEVVIGEYEARYAEHEEYDRIMRDVAEILEQMEHAEVRRLITEDKIRPDGRRVDEIRP”: “not soluble”; “MQASELTPKWYVAPVSIKDEAVVKNLKAKIQALGFNHEIVDVKVLKEREVHEEVYSLKSGKLPRSLKNTTFNKWFVLDDYRYLRVKISEKNLLGRYIYIKMIYSEDAWRIVRNFPGITGIVGSSGRGALPIPLDEKDANNLEQMLKGISINPSKRIMLTNTAIIEMDSDKFDEKFQYILKQKQAIQKPKEDEDSEIVDAEKLKEAFKKLQNSQEQDEWKEKATIIQSEQTKLDPSVLVPFLGKYEILDTDNKVEQLFEFSVGNLVEVHLTDTIHVQGQIKALYQGTVNKAVVEIELTSKTQLINLPLENLSFVEFE”: “soluble”.
Next, “MSHRNDSSRKHRKSRSIKNDQHYPTVSFDGAESVDIPADEGKSPVSTHLSLASNPTEFKFMDEIALLKRGRIDKDAPKHPYNRRGQQPMMKKEISVTSAHSNSSLPVRSPAIMTLMGGVPEAEKEYNVGKGGLLKISKMKEGGKRYEVSANERFTVFQQTAGQTCLFTFKA”: “not soluble”; “MGCLATPVRTEVLKALEYSQRICALRSCSRFIRSPRAMFKRQHTDADVLEHPVSASAPATWSLIGEHTDHAGGVVLMSVAQLRTHVEATTRADDIVSVDYYIADPEMPVQQSAISLSDVFEWQNSLSGDHEPLESP”: “not soluble”; “MRLPDAGFRRYIVVAGRRNVGKSSFMNALVGQNVSIVSEYAGTTTDPVYKSMELYPVGPVTLVDTPGLDDVGELGRLRVEKARRVFYRADCGILVTDSEPTPYEDDVVNLFKEMEIPFVVVVNKIDVLGEKAEELKGLYESRYEAKVLLVSALQKKGFDDIGKTISEILPGDEEIPYLGDLIDGGDLVILVVPIDLGAPKGRLIMPQVHAIREALDREAIALVVKERELRYVMENIGMKPKLVITDSQVVMKVASDVPEDVELTTFSIVESRYRGDLAYFVESVRKIEELEDGDTVVIMEGCTHRPLTEDIGRVKIPRWLVNHTGAQLNFKVIAGKDFPDLEEIEGAKLIIHCGGCVLNRAAMMRRVRMAKRLGIPMTNYGVTISYLHGVLDRAIRPFREEVKVLEHHHHHH”: “soluble”.
Next, “SGARRMETDYNPVELSSMSGFEEGSELNGFEGADMKDMQLEAEAVVNDVLFAVNHMFVSKSMPCADDVAYINVETKERNRYCLELTEAGLRVVGYAFDQVEDHLQTPYHETVYSLLDTLSPAYREAFGNALLQRLEALKRDGQS”: “soluble”.
As to “ENGRLVELPDNDKSDALQFLATILEAVPSIPAGSNIVEIVLEHEKNSNTSLGFGWACPHARVNFDGDLCCAIGWSPAGIDYGIAGEPLVRLVVMFFVPENQRNTYLKEVSTLARVLKSNPEFQNLEPIGDLDQVRNTLLDMTHQAMSE”, the “soluble on expression in E. coli” value is “not soluble”.
Next, “CIPLWGTVSIQGNRSEMEDAFAVSPHFLKLPIKMLMGDHEGMSPSLTHLTGHFFGVYDGHGGHKVADYCRDRLHFALAEEIERIKDELCKRNTGEGRQVQWDKVFTSCFLTVDGEIEGKIGRAVVGSSDKVLEAVASETVGSTAVVALVCSSHIVVSNCGDSRAVLFRGKEAMPLSVDHKPDREDEYARIENAGGKVIQWQGARVFGVLAMSRSIGDRYLKPYVIPEPEVTFMPRSREDECLILASDGLWDVMNNQEVCEIARRRILMWHKKNGAPPLAERGKGIDPACQAAADYLSMLALQKGSKDNISIIVIDLKAQRK”: “soluble”; “DRPFKVGDWIRSPDRQIEGTVERIGWRMTSIRTFDKRPLYVPNSVFSNIVVENPSRMLNRRIYEVVGLRYDDADKVPEIITAVREMLKNHKDIDTRQT”: “not soluble”.
Next, “MSIKIGLLGFGTVASGIPFLLKENGEKVFAASRDQLEIAKVLVKDDEEKDRLIAAGNDYNFVTNVDEILNDEEIQIVVELMGRIEPARTFITKALEAGKNVVSANKDLIATHGKELIALAQDKGVAFYYEAAVAGGIPILRTLANSLTSDKVTRILGVLNGTSNFMMTKMVDEGWSYEDALKTAQELGYAESDPTNDVEGYDAAYKAVILSQFGFGATIDFDDVSHKGITNISTDDVAVAQELGYVIKLVGDVREVESGISAEVSPTFLPKNHPLASVNDVMNAVFVESIGIGESMYYGPGAGQKPTATSVLADIIRIARRLSDGNVGKPFNEFRRDLPLANPADVKSNYYFALDTPDEKGKILHLSEIFNSEDISFEQVLQQKANGTTARIVVITHAMSKTQLKAVTEKLEAAEDFTVVNTLKVLSNLEHHHHHH”: “soluble”; “MSLEKELVTWFNILNKPPLEYLKGVEDFYNAYGEVLEMQDRHAHLLSYKDDDYLHVILCASILHHYSDQDIETLKELLVKFYYQDWVAGQTKTTRSQTCCNIINVLKEKKSMDYITSIVKEYLDDKNITQRFKDNLKDSNLYTKFYFINGKTAKKNSWVKPILILVEYFMSDNANPACIKMDDDLHVERILPQNPDPSSQWMKDFSEEERGLYTHSLANLTLLGGKKNTKALSQALNQDFKEKKEIYMGKTIMLDNKKTFRVMTCYDMTKNDVCRYTEWTPTSLEKRKESEGHHHHHH”: “not soluble”; “MVLSQRQRDELNRAIADYLRSNGYEEAYSVFKKEAELDMNEELDKKYAGLLEKKWTSVIRLQKKVMELESKLNEAKEEFTSGGPLGQKRDPKEWIPRPPEKYALSGHRSPVTRVIFHPVFSVMVSASEDATIKVWDYETGDFERTLKGHTDSVQDISFDHSGKLLASCSADMTIKLWDFQGFECIRTMHGHDHNVSSVSIMPNGDHIVSASRDKTIKMWEVQTGYCVKTFTGHREWVRMVRPNQDGTLIASCSNDQTVRVWVVATKECKAELREHRHVVECISWAPESSYSSISEATGSETKKSGKPGPFLLSGSRDKTIKMWDVSTGMCLMTLVGHDNWVRGVLFHSGGKFILSCADDKTLRVWDYKNKRCMKTLNAHEHFVTSLDFHKTAPYVVTGSVDQTVKVWECR”: “soluble”.
Next, “MDLEISEKIKAYRQVMSAKSPSDAALTWNLFDLPNNMELARFFSTLSKEEMAKFEQCVFVDGQDPKTYIKMHKMVESTATIALSEEIENKRTILVAEPNRGGVSGHEGEMASTSSGFRDGYHPCMDHTSYAEGLFTESEKAWELERLLKLQKEIAEAKSKIVKQKKPSIKSA”: “not soluble”; “MGHHHHHHGGHMSLDEFDLIHSITPRTIHHSSVDVGIGDDAALYTAKHGVQEIVCVDTMVEDVHFKLHYSSPEDIGYKALAVNISDIAAMGGIPKFYLVSLAVPSKWTESEIKAMYEGMNELAKLYHMDLIGGDTVSTADKLVVTVTVIGEIEKGQACLRSLAKPNDIVFVTGEIGSSAAGLSLLLEETNPQNSSVETDYFIHRHKRPEPRVSVGRLCSIFKRAALNDVSDGLASELNEIAEASCVSIEIVESMLPIHSDLPKLHPNWKEWALFGGEDFELTGTVSNEEWEVLKQECAALHLPITKIGYVREKTKSKVILKTDQTSMILEKKGYNHFEGGS”: “soluble”; “MAHHHHHHMSAAAADYPLRRGGDVEDDVDDEERRRLTESSIKAFLEEEGVPVRSSVTVEDITSALVALANSVATASACLAVKVALLRLDCLTAVEGELRKDATRASSSKVRVTAEKSPSPRMTRASAFGWLRHLHQEGKGVCGVLRGGKAELGFVLASFVEEALLFAAMRSLMDRLGPLLPSENGRAGGAAALWWAGLSRTVAPTFVMSLLSWPLRAVRTTIRVNYMADTSLPVCEPSLQPAQQQGEQQQRRQHRYTSATEVWGCVLHRMGVRSLLLNGLDVDFASRALSLGLAWTVVKPASRWMQRWAMMSASTAGAASAPLALVRLGQHRLFALGVLLAVAGSVNALQRPFVVLRQRMALLPVADAESVCNGDDDQTKTPPTARRGCRYANGWDCAVQVWRQEGVSGLLAGLPLCLITSSVVPLLRTFAGYPTAPSFSGAVV”: “not soluble”.
In the case of “MTHQIVTTQYGKVKGTTENGVHKWKGIPYAKPPVGQWRFKAPEPPEVWEDVLDATAYGPICPQPSDLLSLSYTELPRQSEDCLYVNVFAPDTPSQNLPVMVWIHGGAFYLGAGSEPLYDGSKLAAQGEVIVVTLNYRLGPFGFLHLSSFDEAYSDNLGLLDQAAALKWVRENISAFGGDPDNVTVFGESAGGMSIAALLAMPAAKGLFQKAIMESGASRTMTKEQAASTAAAFLQVLGINESQLDRLHTVAAEDLLKAADQLRIAEKENIFQLFFQPALDPKTLPEEPEKSIAEGAASGIPLLIGTTRDEGYLFFTPDSDVHSQETLDAALEYLLGKPLAEKAADLYPRSLESQIHMMTDLLFWRPAVAYASAQSHYAPVWMYRFDWHPEKPPYNKAFHALELPFVFGNLDGLERMAKAEITDEVKQLSHTIQSAWITFAKTGNPSTEAVNWPAYHEETRETVILDSEITIENDPESEKRQKLFPSKGE”, the “soluble on expression in E. coli” value is “soluble”.
Next, “MAHHHHHHMENLYFQGMSSFLPEGGCYELLTVIGKGFEDLMTVNLARYKPTGEYVTVRRINLEACSNEMVTFLQGELHVSKLFNHPNIVPYRATFIADNELWVVTSFMAYGSAKDLICTHFMDGMNELAIAYILQGVLKALDYIHHMGYVHRSVKASHILISVDGKVYLSGLRSNLSMISHGQRQRVVHDFPKYSVKVLPWLSPEVLQQNLQGYDAKSDIYSVGITACELANGHVPFKDMPATQMLLEKLNGTVPCLLDTSTIPAEELTMSPSRSVANSGLSDSLTTSTPRPSNGDSPSHPYHRTFSPHFHHFVEQCLQRNPDARPSASTLLNHSFFKQIKRRASEALPELLRPVTPITNFEGSQSQDHSGIFGLVTNLEELEVDDWEF”: “soluble”.
Next, “MGSDKIHHHHHHMSISVKSNRALFDLDLLRAIVVVADCGSFTTAAARLHSTQSTISQKVRRLEDMVGHRLLVRGNRDVLPTDAGQTLLGYARHMLALNDQMLEALAGAMVGTTVRLGVPEDFVGGRTTNALSAFSRLHPQVKLEVTSGLCRDLSQAYDNGELDLVLLKQRRNSREGVACWPERLQWIDSARTPAFELDPIPLVTFPPRGLYREDMINAIEGMGRRWRISFTSSSLSGIQAAVADGMGISLLPPRAATGEHRVLGAGQGLPEVDSYEIVIVHRPTADVMVKALAEVMTQLLAGGGI”: “not soluble”.
